The text below walks through data of article PMC11150344 (2024).

In test [1] the target is T1, PIK3CA H1047L peptide on HLA-A*11:01 (human).
T1 peptide: ALHGGWTTK
The experiment in a line: multimer staining.

Test [2] has as its target T2, PIK3CA H1047L peptide on HLA-A*03:01 (human).
T2 peptide: ALHGGWTTK
The test is described as follows: activation reporter or marker.

B1: TCR2 (TCR)
alpha TRAV12-3*01 TRAJ26*01 CDR3: CATNYGQNFVF
beta TRBV29-1*01 TRBJ2-7*01 CDR3: CSVSGTSNYEQYF
As for B1, the binding result in test [1] is given as “recognises”; in test [2], “no recognition”.

B2: TCR5 (TCR)
alpha TRAV24*01 TRAJ44*01 CDR3: CASHAGTASKLTF
beta TRBV4-3*01 TRBJ2-1*01 CDR3: CASSQDVASSYNEQFF
B2: the binding result is given as “recognises” in test [1] and “no recognition” in test [2].

B3: TCR4 (TCR)
alpha TRAV19*01 TRAJ49*01 CDR3: CALSEATGNQFYF
beta TRBV29-1*01 TRBJ2-7*01 CDR3: CSVQTLTSSDEQYF
With B3, the binding result was “recognises” in test [1] and “no recognition” in test [2].

B4: TCR1 (TCR)
alpha TRAV13-2*01 TRAJ49*01 CDR3: CAEGETGNQFYF
beta TRBV5-1*01 TRBJ2-1*01 CDR3: CASSSGTGGFEQFF
B4: the binding result is listed as “recognises” in test [1] and “no recognition” in test [2].
